Results reported in US20120107320A1 (UNIVERSITY COURT OF THE UNIVERSITY OF ABERDEEN, published 2012).

Biological target: T1, human soluble CTLA-4 (sCTLA-4), natural soluble form (human, UniProt P16410-5 36-174, limits assumed)
T1 construct: also called natural soluble CTLA-4; soluble form of cytotoxic T-lymphocyte antigen 4
T1 sequence (looked up): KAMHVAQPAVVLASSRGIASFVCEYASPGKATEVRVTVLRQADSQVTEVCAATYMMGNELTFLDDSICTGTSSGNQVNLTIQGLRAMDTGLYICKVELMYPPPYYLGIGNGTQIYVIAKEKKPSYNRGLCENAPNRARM
Assay: sandwich ELISA, capture with pan-specific mAb BNI3, detection with biotinylated JMW-3B3
From the text: FIG. 7. Anti-sCTLA-4 JMW-3B3 distinguishes, in sera and culture supernatant, true natural soluble CTLA-4 from extracellular membrane-bound CTLA-4 (mCTLA-4). The extracellular portion of mCTLA-4 is encoded by exon 2 and is identical in sCTLA-4, mCTLA-4 and the recombinant soluble form of CTLA-4, CTLA4-Ig. […] Pan-specific anti-CTLA-4 mAb (clone BNI3) was used as the capture antibody.

B1: monoclonal anti-sCTLA-4 antibody JMW-3B3 (antibody, mouse IgG1, V domains shown)
VH: EVKLVNSGGGLVQPGNSLRLSCATSGFTFTDFYMSWVRQPPGKALEWLGFVRNRANGYTTEYSVSVKGRFIISRDNFQSTLFLQMNTLRAEDSGTYYCVRGPGDTADYTMDYWGQGTSVTVSS
VL: QAVVTQESAFTTSPGGTVILTCRSSTGAVTTNNYANWVQEKPDHLFTGLIGGTSNRAPGVPVRFSGSLIGDKAALTITGAQTEDDGMYFCALWYTTHFVFGGGTKVT
notes: It was biotinylated for detection in the sandwich ELISAs; also called mAb JMW-3B3; anti-sCTLA-4 mAb
Q: Does B1 bind?
A: Result: binds
